Assay: soluble on expression in E. coli; label from the status in PepcDB or PDB records

## HMTHIDDYSTWDIVKATQYGIYERCRELVEAGYDVRQPDKENVTLLHWAAINNRIDLVKYYISKGAIVDQLGGDLNSTPLHWATRQGHLSMVVQLMKYGADPSLIDGEGCSCIHLAAQFGHTSIVAYLIAKGQDVDMMDQNGMTPLMWAAYRTHSVDPTRLLLTFNVSVNLGDKYHKNTALHWAVLAGNTTVISLLLEAGANVDAQNIKGESALDLAKQRKNVWMINHLQEARQAKGYDN
  soluble on expression in E. coli: soluble

## MELRELFEVQGELDAHIEKIHPRKEGEKRLEEKILALQTELGEIANEWRQFKFWSNDREPRTERLLEEYVDGFHFVLSIGLEESKRYGQSVPIRLGLPDELTSICYETTIQQFNYLFSEIGRLYDSVTLHEVAADTEVEEAYENIIRMFIGLGEKLGFTEKEIAEGYMRKNMINHERQKNGY
  soluble on expression in E. coli: not soluble

## MGSDKIHHHHHHMIQIKRGKIVGFNERVGRAFHPAQVAEPAQHAPHQRRLARTEVAFQIEGHAGRQAGRKPRAERKRGGLVGKVATRRRGIIRGMHEQDSPRDFGRLAAQIKQWGRELGFAAIGITDADLSAAEAGLHTWLDKGFHGEMDYMAAHGTKRSRPAELVPGTLRIISARLDYFPPDAVDPDTILATPDAAYVSRYALGRDYHKVLRQRLQTLAERIGAAAGEHHFRVFSDSAPVMEVELATRAGLGWRGKHTLLLNRHHGSWFFLGEIYSDLPLPVDAPEAEHCGTCHACLDACPTQAIVAPYSVDARRCISYLTIELKGSIPLELRSLIGNRIYGCDDCQLVCPWNRFAGTAAVPDFAVRNGLDSAQLVDLFAWSEADFNDRLAGSPIRRIGHERWLRNIAVALGNARPAPAIEAALGTRLDHPSAMVREHVAWALARQQER
  soluble on expression in E. coli: not soluble

## MPTIQQLVRKGRRDKISKVKTAALKGSPQRRGVCTRVYTTTPKKPNSALRKVARVKLTSQVEVTAYIPGEGHNLQEHSMVLVRGGRVKDLPGVRYKIIRGSLDTQGVKNRKQARSRYGAKKEKG
  soluble on expression in E. coli: not soluble

## MDSEGASSESSSSGDQLEKWTEEQDELKKKLIAYDDFTWKLSSSTELSQGSEILKYVGGVDMSFCKEDSSVACACLVVLELPSLRVVHHDFSLLRLHVPYVPGFLAFREAPVLLQILQKMRDEKHPFYPQVLMVDGNGILHPRGFGLACHLGVLAHLPTIGVGKNLHHVDGLNQSEVKQSLQLQINEHEQTITLVGNSGITWGVGFRPTLSSLKPIYVSVGHRISLDSAVEVVKITCKYRVPEPIRQADIRSRAYLQKHQTESFKELAVRPPDQTEP
  soluble on expression in E. coli: soluble

## MGKIGIFFGTDSGNAEAIAEKISKAIGNAEVVDVAKASKEQFNSFTKVILVAPTAGAGDLQTDWEDFLGTLEASDFANKTIGLVGLGDQDTYSETFAEGIFHIYEKAKAGKVVGQTSTDGYHFEASKAVEGGKFVGLVIDEDNQDDLTDERISKWVEQVKGSFA
  soluble on expression in E. coli: soluble

## MTQTAAPARYSPAELACALGLFPPTAEQAAVIAAPPGPLVVIAGAGAGKTETMAARVVWLVANGYAEPGQVLGLTFTRKAAGQLLRRVRSRLARLAGIGLGCGDPAACAPVVSTYHAFAGSLLRDYGLLLPLEPDTRLLSETELWQLAFDVVSGYDGVLCTDKSPAAVTSIVVRLWGQLGEHLVDTRALRDTHVELERLVHALPAGRYQRDRGPSQWLLRMLATQTQRAELVPLLDALGERMHAGKVMDFAMQMASAARLAATSPQVGQDLRRRYRVVLLDEYQDTGHAQRVVLSSLFGGGVDDGLALTAVGDPIQSIYGWRGASATNLPRFTTDFPLSDGTPAPVLELLTSWRNPPQALRVANGISAEARRRSVAVRALRPRPDAPPGAVRCALLPDVQAEREWIADHLRMRYQRAEADGVKPPTAAVLVRRNADAAAIADTLRARGIPAEVVGLAGLLSIPEVAEVVAMLRLVADPTAGAAAMRVLTGPRWRLGARDLAALWRRALTLSGESPSTASPESIAMAASADADNPCLADAISDPGSAEGYSVAGYGRIGALAGELSALRGRLGHSLPDLVAEVRRVLGVDCEVRASAPVSGGWAGPEHLDAFADVVAGYAERASARSSEASVAGLLAYLDVAEVVENGLPPAELTVACDRVQVLTVHAAKGLEWQVVAVAHLSRGVFPSTVSRSSWLTDPAELPPLLRGDRASAGAHGIPVLDTSAVADRKQLSDKISEHRRLLDRRRVDEERRLLYVAVTRAEDTLLVSGHHWGPTGTKPRGPSEFLCELKDIIDRSAAAGDPCGVVEQWASAPAGDERNPLCDNAIEAVWPADPLAARRGDVERGAALVAAAMSADLPGSTTDIDHPPRPGDAPWSTDVDALLAERAHAARGAPARGLPNHLSVSSLVELVGDPVGARQRLMCRLPKRPDPHAWLGDAFHAWVQQFYGAELLFDLGDLPGAADREVGDPEELAALQRAFTASSWAARTPAAVEVPFEMPIGDTVVRGRIDAVFVDPDGGATVVDWKTGKPPHGPAAMRQAAVQLAVYRLAWAALRGCPTSSVRTAFYYVRSGITVVPDELPAPGELAMLLTDCAGRRSDT
  soluble on expression in E. coli: not soluble

## GPGSMVKPRSQGPRRPAVKQADNKSVGDRSKTAVTEKMKPSRLVGGTTGAKKERREGKKVSTGKANKVAATSASTVVLKEGGKPSGPSHGTGTNSSRRGKRSPQAQTRRAAARVASRVIESNSRITAATNRMNTAREELALFDQVTQMPAFVADPFTAIDEHLSTAMDFLQPQTPDVGRVKRE
  soluble on expression in E. coli: soluble

## IGFQRGAQGEGLVVIDLQGTNTPVDVQQQGSKVVVRFPGIKIPTHLARRLNTTDFATPVASIDSYNDGSNGVISIQSTGSYEYMAYQAENKLTISLKRPQDNV
  soluble on expression in E. coli: not soluble

## MSTVKEAVDVEVPVHTAYNQWTQFEEFPHFMEGVEEVRQLDERHNHWTTQVSGVKREFDTEIVDQLPDERITWRTTTGDTNQKGTVRFQRLDDTHTRVELVMDVDPTGVAEKTGDMLGVIDRRVKGDMQRFKEYIEKRGGESGAWRGRIRPGELEHHHHHH
  soluble on expression in E. coli: soluble

## MPAHPAKTDLASSAGARGGALAMESAEHSASPAIATTARLLAAMKDQPGALLPVLHAVQDELGFIPPEAVQTIAETLSLSRAEVHGVITFYPHFRSEPAGRHVLEICRAESCQAMGGDALAAHARQRLGCEFHATAADGSCTLEPVYCLGLCAQSPAVMIDGQPHARVTPAKLDRLLARAIEATP
  soluble on expression in E. coli: not soluble

## MSDLVSYHLDDGVATLTLNNGKVNAISPDVIIAFNAALDQAEKDRAIVIVTGQPGILSGGYDLKVMTSSAEAAINLVAQGSTLARRMLSHPFPIIVACPGHAVAKGAFLLLSADYRIGVAGPFSIGLNEVQIGMTMHHAGIELARDRLRKSAFNRSVINAEMFDPEGAMAAGFLDKVVSVEELQGAALAVAAQLKKINMNAHKKTKLKVRKGLLDTLDAAIEQDRQHML
  soluble on expression in E. coli: soluble

## MGSDKIHHHHHHMIVDNDLISIQEARILAENAGRAQRVLATFSQEQLDEIVEAVAEAVGAQAQALADMAYEETDYGNPHDKAVKNRFVCTQVREQLRGMRCVGVIGRDEHARTMDIGVPVGVIAALCPATSPVSTTICKTLIAVKSGNAVVFSPHPRAARSIAAALDIMIDAARAHGLPEGCLSYMSTVTKSGTAELMNHPATSLVMLSGVPGMIGLARCSGKPVIYGGTGNGPAFVERSADIRRAVADIMLSKTFDNGIAPSAEQSIVVDSCIEREVRHALQECGAYFMTDEESLRLAELLFCADGRHKAGMVGVSAPVLARRAGISVPDNVRLLVAERKYVSEADPYSRELLSPVLAYYVEDDWMHACEKCIELLLHERNAHTLVIHSSNEEVILQFALKKPVGRLLVNTPATFGGMGVTTNLFPSMTLGSGSAGRGITADNVSPMNLIYIRKVGYGVRQYTGAQDAAGYGSRVCAAQGVMAPHDSDSRKMQALHRILMEAIGVMDGAAHR
  soluble on expression in E. coli: not soluble

## LQTLPPVQLAQKYFQIFSEEKDPLWQDPCEDKRHKDIWSKEKTCDRFPKLLIIGPQKTGTTALYLFLGMHPDLSSNYPSSETFEEIQFFNGHNYHKGIDWYMEFFPIPSNTTSDFYFEKSANYFDSEVAPRRAAALLPKAKVLTILINPADRAYSWYQHQRAHDDPVALKYTFHEVITAGSDASSKLRALQNRCLVPGWYATHIERWLSAYHANQILVLDGKLLRTEPAKVMDMVQKFLGVTNTIDYHKTLAFDPKKGFWCQLLEGGKTKCLGKSKGRKYPEMDLDSRAFLKDYYRDHNIELSKLLYKMGQTLPTWLREDLQNTR
  soluble on expression in E. coli: soluble

## TYDGKVESVVLGFATEVPEPWVTEKLSITEEELVYKIIRLRIIEDVPSIIEYTWMPVALIPNLTMKELKVSIYQYISEQLHQKIQSARVSISGIRPSPLEKKYLNLTDNDFLMRAEQIAYLGNGHIFEYSIANHIPSEFTFETVLIAEK
  soluble on expression in E. coli: not soluble

## DAHSLWYNFTIIHLPRHGQQWCEVQSQVDQKNFLSYDCGSDKVLSMGHLEEQLYATDAWGKQLEMLREVGQRLRLELADTELEDFTPSGPLTLQVRMSCECEADGYIRGSWQFSFDGRKFLLFDSNNRKWTVVHAGARRMKEKWEKDSGLTTFFKMVSMRDCKSWLRDFLMHRKKRLE
  soluble on expression in E. coli: soluble

## MAHHHHHHMKRGREEDKEAEVGGSRVGPSDRRSAATSTEHKPRRLLKGADVGLPLHESVIEETCEVEETHAVLVRFPCFDFFRHVRVCERTRDLQPATSDDAAKASASLASALSDTTFRSGAPPVTSTHDTADVAFAPEAAVFIPGTLETDAPRLLLNGGTPHEMLFEGQWTEVTGEGVSVTNRAVVHLSAKTAGIAVSPAALPLNTSPIMSDAAKSPELARAAAESFPASASQATATPALPIASLLTHTLAGVTADEERRQRAEQQKGWTYDRIDVPSAVLVMHRVR
  soluble on expression in E. coli: not soluble

## MGHHHHHHSHFLSSSTYPEIHGFLHAKEQGKKSWKKIYFFLRRSGLYFSTKGTSKEPRHLQFFSEFGNSDIYVSLAGKKKHGAPTNYGFCFKPNKAGGPRDLKMLCAEEEQSRTCWVTAIRLLKYGMQLYQNYMHPYQGRSGCSSQSI
  soluble on expression in E. coli: not soluble

## NLREDGEKAAREVKLLLLGAGESGKSTFLKQMRIIHGQDFDQRAREEFRPTIYSNVIKGMRVLVDAREKLHIPWGDNKNQLHGDKLMAFDTRAPMAAQGMVETRVFLQYLPAIRALWEDSGIQNAYDRRREFQLGESVKYFLDNLDKLGVPDYIPSQQDILLARRPTKGIHETHFTFKDLHFKMFDVGGQRSERKKWFECFEGVTAIIFCVALSDYDQVLMEDRQTNRMHESMKLFDSICNNKWFTDTSIILFLNKKDLFEEKIKKSPLTICYPEYAGSNTYEEAAAYIQCQFEDLNKRKDTKEIYTHFTCATDTKNVQFVFDAVTDVIIKNNLKDCGLF
  soluble on expression in E. coli: soluble

## MSLDHFQIDHIAIAVPSLNTSLPLFEQALQATASHEERLPHHHINAVFINGRGVGYELIEPHPSNVSMQRFLAKQNNRPAFHHIAFSVANIETAIGMLKEKHVRLTSELPLIGSFGRKVAFIHPSSTGGLLVELCEGKTEGHHHHHH
  soluble on expression in E. coli: soluble

## ELAAIQNLGGMDVLCTDKTGTITEDRVVLVQHLNPLGDLSDEVLNLAYLNSSYQTGWKNLMDIAVINFYEEHQWKTPFKNVTKIDEIPFDFSRRRLTVVVNADDHQLMITKGAVEEMEEVCTHAQINGEIVPLSTAVREELRRVNVQMNKQGMRVLAVAVKKDVHKEAVYSVEDEKEMTLIGFMGFLDP
  soluble on expression in E. coli: not soluble

## MGSDKIHHHHHHMTAGGLHNGSGGMESARHCRELVERWLADGSFDARLPEVVRLRGVLQPEQYHAEGDAWTHTMLAMEAVPDDADPRVFWGVLLHDIGKAETTAFIKGRWRSWGHAEAGAGEVSAIMTRLGFPHLAADVTWLVKHHTFHFSWNLTPGARLSPKQRRFMEHPLFPLLLEVCDADAAGSRGGSDKGVKIGQLADMYADVTKGWADS
  soluble on expression in E. coli: not soluble

## EFVGRGIGNSVREDLSFNLLLSSDMDETQAQELQRQIAATPFVKDVSYISADQALEEMKKELGEDDPAKMLGYNPLQAEMCVHLKAQYTHPDSLKTIDSAIRTWNGVDNLEYRADMFDIVHRNTRR
  soluble on expression in E. coli: not soluble

Reference: the DeepSol protein solubility set
